Patent US20220267462A1 (HARPOON THERAPEUTICS, published 2022)
Positions count from the first letter of the chain named.

T1: cynomolgus EpCAM protein (cynomolgus, UniProt Q1WER1 27-265 (rhesus entry), limits assumed, biotinylated in the Octet assays (site not stated))
T1 construct: also called cy EpCAM; biotinylated cynomolgus EpCAM protein
T1 sequence: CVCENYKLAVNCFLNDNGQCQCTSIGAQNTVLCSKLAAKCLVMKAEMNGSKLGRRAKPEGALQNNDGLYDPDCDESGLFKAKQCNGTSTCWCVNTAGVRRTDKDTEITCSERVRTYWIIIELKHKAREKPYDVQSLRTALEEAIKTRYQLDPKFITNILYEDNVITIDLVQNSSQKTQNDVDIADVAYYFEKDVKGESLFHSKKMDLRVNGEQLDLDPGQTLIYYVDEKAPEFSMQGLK

T2: human EpCAM protein (human, UniProt P16422 24-265, biotinylated in the Octet assays (site not stated))
T2 construct: also called hu EpCAM; biotinylated human EpCAM protein
T2 sequence: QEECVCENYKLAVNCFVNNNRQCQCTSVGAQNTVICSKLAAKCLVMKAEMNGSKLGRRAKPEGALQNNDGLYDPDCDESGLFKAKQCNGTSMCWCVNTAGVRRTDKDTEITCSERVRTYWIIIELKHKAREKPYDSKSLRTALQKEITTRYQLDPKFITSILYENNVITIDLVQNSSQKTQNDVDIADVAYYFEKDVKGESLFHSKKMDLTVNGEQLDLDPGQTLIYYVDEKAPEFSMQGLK

B1: EPL138 (VHH)
VHH: QVQLQESGGGLVQAGGSLRLSCAASGFIFRAASMDWYRQFPGNERESIATISSGGFTNYADSVKGRFTISRDNAKNTVYLQMNSLKPEDTAVYFCGATFLRSDGHHTINGQGTQVTVSS
B2: EPL2 (VHH)
VHH: QVQLQESGGGLVQPGGSLRLSCAASESISSFIAVGWYRQAPGKERELVAGINRSGFTYYTDSVKGRFSISRDNAKNTVLLQMTSLKPEDTAVYYCNAGGLYFSNAYTQGDYWGQGTQVTVSS
B3: EPL43 (VHH)
VHH: B2 VHH with P14T
B4: EPL10 (VHH)
VHH: QVQLQESGGGLVQAGGSLRLSCAASGSVFRANVMGWYRQAPGKQHELVARIDPGGTTTYADPVKGRFTISRDNAKKTVYLQMNSLKPDDTAVYYCNAIILLSGGPKDYWGQGTQVTVSS
B5: EPL49 (VHH)
VHH: QVQLQESGGGLVQAGGSLRLSCAPSGRTSSIFGMGWFRQAPGKEREFVASINWSGGSTSYADSVKGRFTISRDNAKNEMYLQMNSLKFEDTAVYVCAAAVLTNKPSWNFWGQGTQVTVSS
B6: EPL58 (VHH)
VHH: QVQLQESGGGLVQAGGSLRLSCAASGPIFSDTIRTMGWYRQAAGKQRELVATIASFPSRTNYVDSVKGRFTISRDIAKNTVYLQMDSLKPEDTAVYYCNVDLASIPTKTYWGQGTQVTVSS
B7: EPL74 (VHH)
VHH: QVQLQESGGGLVQAGGSLRLSCAASGSIFGINAMGWYRQAPGKQRESVAFITIGGNTNYLDSVKGRFTISRDNAKNTVYLQMNGLKPEDTAVYYCNTNPPLILTAGGLYWGQGTQVTVSS
B8: EPL78 (VHH)
VHH: QVQLQESGGGLVQPGGSLRLSCATSANRFNINVMGWYRQAPGQQRELVATINIGGSTDYADSVKGRFTISRDNAKNTVYLQLSDLKPEDTAVYYCNVKLRVSGPTGPNVYWGQGTQVTVSS
B9: EPL82 (VHH)
VHH: QVQLQESGGGLVQAGGSLKLSCTASGTILSTMAWYRQAPGKQRELVATISRGGTTNYSDSVKGRFAISRDSTKNTVYLQMNSLKPEDTAVYYCNTPLTDYGMGYNWGQGTQVTVSS
B10: EPL83 (VHH)
VHH: QVQLQESGGGLVQAGGSLRLSCAVSGSIFSLNTLAWYRQAPGRQRDLIARITGGGTTVYADSVKGRFTISRDNAKNTVYLQMNSLKPEDTAVYYCNLMVRHPSGSTYEYWGQGTQVTVSS
B11: EPL97 (VHH)
VHH: QVQLQESGGGLVQAGGSLRLSCAASGIIFRGTTMGWFRQAPGKQRESVASISPLGTTSYSGSVEGRFTVSRDNAKNTLFLQMNSLKSEDTAVYYCNAIQVTNVGPRVYWGQGTQVTVSS
B12: EPL109 (VHH)
VHH: QVQLQESGGGLVQPGGSLRLSCASSGFTLDDYTIGWFRQAPGKEREGVSCISRRDDSTYYADSVKGRFTISRDNAKNTVDLQMISLRPEDTAVYYCAATPRSYTLRCLGKFDFQGQGTQVTVSS
B13: EPL117 (VHH)
VHH: QVQLQESGGGLVQAGGSLRLSCAASGNIVRMTNMAWYRQAPGKQREFVATISAGGSTTYVDSVKDRFTISRDNTKNTVYLQMNYLKPEDTAVYYCATGSILTNRGAIPGSWGHGTQVTVSS
B14: EPL127 (VHH)
VHH: QVQLQESGGGLVQAGGSLRLSCAAPGFAFNDHAILWFRQAPGKEREGVSEICRDGTTYYTDSVKGRFTISSDNAKNTVYLQMNSVKTDDTAVYYCAVDRRRYYCSGNRAFSSDYYYWGQGTQVTVSS
B15: EPL152 (VHH)
VHH: QVQLQESGGGLVQAGGSLRLSCVHSGSIFRASTMAWYRQAPGKQRELVAQIMSGGGTNYAGSVKGRFTISRDNANNTVYLQMNSLKPEDTAVYYCNAAQITSWGPKVYWGQGTQVTVSS
B16: EPL189 (VHH)
VHH: QVQLQESGGGLVQPGGSLRLSCAASGRINSINTMGWYRQAPGNQRELVAEITRGGTTNYADSVQGRYAISRDNAKNLVYLQMNSLKPEDTDVYYCNAQTFPTFSRPTGLDYWGQGTQVTVSS
B17: EPL126 (VHH)
VHH: QVQLQESGGGLVQAGGSLRLSCAASGFIFRAASMGWYRQSPGNERELVATINSGGFTNYADSVKGRFTISRDNAKNTGYLQMNSLKPEDTAVYFCAATFLRSDGQPPIWGQGTQVTVSS
B18: EPL90 (VHH)
VHH: B1 VHH with D35A, F40S, S47L, I48V, T50S, G55A, G65A
notes: llama anti-EpCAM heavy chain only single domain antibody; tested as E. coli periplasmic extract
B19: EPL118 (VHH)
VHH: B1 VHH with D35G, Y37F, F40S, S47L, I48V, I51V, G55D, L100V, N109Y
B20: EPL120 (VHH)
VHH: B17 VHH with M34I, G35S, K64L
B21: EPL164 (VHH)
VHH: QVQLQESGGGLVQAGGSLRLSCAASGFIFRAASMDWYRQSPGTQPELVATISSTGFTNYANSVKGRFTISRDNAKNTVYLQMNSLKPEDTAVYFCGATFLRSDGQHSIYGQGTQVTVSS
B22: EPL31 (VHH)
VHH: QVQLQESGGGLVHTGGSLRLSCAASGDTFLRYAMGWFRQAPGKEREFVAAITWNGGNTDYAGSLKGRFTISRDNTKNTVYLQMNSLKPEDTAVYYCAADLTFGLASSHYQYDYWGQGTQVTVSS
B23: EPL55 (VHH)
VHH: B22 VHH with H13Q, T14A

biological target: T1, cynomolgus EpCAM protein; test: colorimetric ELISA
Source text: (§1) A phage display library for expression of heavy variable antibody domains was constructed from circulating B cells. See van der Linden, de Geus, Stok, Bos, van Wassenaar, Verrips, and Frenken. 2000. J Immunol Methods 240:185-195.

Going from B1 to B2, the “Cynomolgus EpCAM/Control” value rises from 3 to 24.

First: B3
Second: B4
The “Cynomolgus EpCAM/Control” value of the first is higher: 27 for the first, 9 for the second.

B5 and B6 are the same in “Cynomolgus EpCAM/Control” value: 4 for the first, 4 for the second.

Going from B7 to B8, the “Cynomolgus EpCAM/Control” value rises from 5 to 11.

First: B9
Second: B10
The “Cynomolgus EpCAM/Control” value of the first is higher: 5 for the first, 2 for the second.

Going from B11 to B12, the “Cynomolgus EpCAM/Control” value falls from 5 to 2.

Going from B13 to B14, the “Cynomolgus EpCAM/Control” value rises from 3 to 11.

Going from B15 to B16, the “Cynomolgus EpCAM/Control” value rises from 4 to 8.

Going from B17 to B18, the “Cynomolgus EpCAM/Control” value rises from 4 to 10.

B19 and B20 are the same in “Cynomolgus EpCAM/Control” value: 4 for the first, 4 for the second.

First: B21
Second: B22
The “Cynomolgus EpCAM/Control” value of the first is higher: 34 for the first, 6 for the second.

In the case of B23, the “Cynomolgus EpCAM/Control” value is reported as 7.

biological target: T2, human EpCAM protein; test: colorimetric ELISA
Source text: as §1

Compared with B1, B2 is higher in “Human EpCAM/Control” value: 3 for the first, 15 for the second.

Compared with B3, B4 is lower in “Human EpCAM/Control” value: 13 for the first, 12 for the second.

B5 and B6 are the same in “Human EpCAM/Control” value: 8 for the first, 8 for the second.

First: B7
Second: B8
The “Human EpCAM/Control” value of the first is lower: 10 for the first, 17 for the second.

First: B9
Second: B10
The “Human EpCAM/Control” value of the first is higher: 4 for the first, 3 for the second.

First: B11
Second: B12
The “Human EpCAM/Control” value of the first is higher: 8 for the first, 5 for the second.

Going from B13 to B14, the “Human EpCAM/Control” value rises from 4 to 5.

First: B15
Second: B16
The “Human EpCAM/Control” value of the first is lower: 4 for the first, 12 for the second.

Compared with B17, B18 is higher in “Human EpCAM/Control” value: 5 for the first, 10 for the second.

B19 and B20 are the same in “Human EpCAM/Control” value: 5 for the first, 5 for the second.

B21 and B22 are the same in “Human EpCAM/Control” value: 7 for the first, 7 for the second.

B23 was tested, and the “Human EpCAM/Control” value was 5.
